Drawing on PMC12167799, “The role of human Shu complex in ATP-dependent regulation of RAD51 filaments during homologous recombination–associated DNA damage response” (The Journal of Biological Chemistry, 2025), this text covers fluorescence intensity of 5′-6-FAM-labeled RAD51-ssDNA filaments (1 μM RAD51, 15 nM poly-dT39, 2 mM ATP) after addition of 50 nM hSWS1-SWSAP1, 10-s intervals over 60 s for one substance.

For this assay, the target named is human RAD51 (human) (UniProt Q06609).
Sequence of human RAD51 (human) (Q06609 whole entry): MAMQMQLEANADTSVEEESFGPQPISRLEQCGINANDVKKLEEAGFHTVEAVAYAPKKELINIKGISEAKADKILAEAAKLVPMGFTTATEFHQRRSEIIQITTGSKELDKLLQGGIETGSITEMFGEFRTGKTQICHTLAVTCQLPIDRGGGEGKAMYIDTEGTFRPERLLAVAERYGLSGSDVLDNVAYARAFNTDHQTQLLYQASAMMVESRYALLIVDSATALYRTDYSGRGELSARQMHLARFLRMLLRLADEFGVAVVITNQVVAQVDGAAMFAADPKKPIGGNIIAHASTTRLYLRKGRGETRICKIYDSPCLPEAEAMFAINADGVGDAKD

The substance “human Shu complex hSWS1-SWSAP1, wildtype (from UniProt Q19AV6 1-140; Q6NVH7 1-250)” gave a fluorescence intensity of 5′-6-FAM-labeled RAD51-ssDNA filaments (1 μM RAD51, 15 nM poly-dT39, 2 mM ATP) after addition of 50 nM hSWS1-SWSAP1, 10-s intervals over 60 s of 40%.
